From US20190170753A1 (ICAHN SCHOOL OF MEDICINE AT MOUNT SINAI, published 2019)

Columns and labels:
Test in all cases: peptide EIA, 2 ug/mL IgG;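 note: purified mouse IgG binding to individually well-coated synthetic peptides, detected with peroxidase anti-mouse IgG Fc and o-phenylenediamine, IgG incubated at least 1 h at room temperature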
HCV core peptide 2 = target: T1, HCV core peptide 2 (hepatitis C virus, N-terminal biotin; C-terminal amide)
T1 construct: range 3-17

HCV core peptide 6 = target: T2, HCV core peptide 6 (hepatitis C virus, N-terminal biotin; C-terminal amide)
T2 construct: range 11-25

HCV core peptide 7 = target: T3, HCV core peptide 7 (hepatitis C virus, N-terminal biotin; C-terminal amide)
T3 construct: range 13-27

HCV core peptide 8 = target: T4, HCV core peptide 8 (hepatitis C virus, N-terminal biotin; C-terminal amide)
T4 construct: range 15-29

HCV core peptide 11 = target: T5, HCV core peptide 11 (hepatitis C virus, N-terminal biotin; C-terminal amide)
T5 construct: range 21-35

HCV core peptide 12 = target: T6, HCV core peptide 12 (hepatitis C virus, N-terminal biotin; C-terminal amide)
T6 construct: range 23-37

HCV core peptide 15 = target: T7, HCV core peptide 15 (hepatitis C virus, N-terminal biotin; C-terminal amide)
T7 construct: range 29-43

HCV core peptide 16 = target: T8, HCV core peptide 16 (hepatitis C virus, N-terminal biotin; C-terminal amide)
T8 construct: range 31-45

HCV core peptide 19 = target: T9, HCV core peptide 19 (hepatitis C virus, N-terminal biotin; C-terminal amide)
T9 construct: range 37-51

HCV core peptide 21 = target: T10, HCV core peptide 21 (hepatitis C virus, N-terminal biotin; C-terminal amide)
T10 construct: range 41-55

HCV core peptide 22 = target: T11, HCV core peptide 22 (hepatitis C virus, N-terminal biotin; C-terminal amide)
T11 construct: range 43-57

HCV core peptide 23 = target: T12, HCV core peptide 23 (hepatitis C virus, N-terminal biotin; C-terminal amide)
T12 construct: range 45-59

HCV core peptide 32 = target: T13, HCV core peptide 32 (hepatitis C virus, N-terminal biotin; C-terminal amide)
T13 construct: range 63-77

HCV core peptide 33 = target: T14, HCV core peptide 33 (hepatitis C virus, N-terminal biotin; C-terminal amide)
T14 construct: range 65-79

HCV core peptide 34 = target: T15, HCV core peptide 34 (hepatitis C virus, N-terminal biotin; C-terminal amide)
T15 construct: range 67-81

HCV core peptide 41 = target: T16, HCV core peptide 41 (hepatitis C virus, N-terminal biotin; C-terminal amide)
T16 construct: range 81-95

HCV core peptide 42 = target: T17, HCV core peptide 42 (hepatitis C virus, N-terminal biotin; C-terminal amide)
T17 construct: range 83-97

HCV core peptide 46 = HCV core peptide 46 (hepatitis C virus, N-terminal biotin; C-terminal amide)
HCV core peptide 51 = target: T18, HCV core peptide 51 (hepatitis C virus, HELM PEPTIDE1{[O=C1N[C@H]2[C@H](CS[C@H]2CCCCC(=O)[*:2])N1].S.G.S.G.R.G.S.R.P.S.W.G.P.T.D.P.R.R.R.[am]}$$$$V2.0; SMILES …)
T18 peptide: SGSGRGSRPSWGPTDPRRR

HCV core peptide 52 = target: T19, HCV core peptide 52 (hepatitis C virus, HELM PEPTIDE1{[O=C1N[C@H]2[C@H](CS[C@H]2CCCCC(=O)[*:2])N1].S.G.S.G.S.R.P.S.W.G.P.T.D.P.R.R.R.S.R.[am]}$$$$V2.0; SMILES …)
T19 peptide: SGSGSRPSWGPTDPRRRSR

HCV core peptide 53 = target: T20, HCV core peptide 53 (hepatitis C virus, HELM PEPTIDE1{[O=C1N[C@H]2[C@H](CS[C@H]2CCCCC(=O)[*:2])N1].S.G.S.G.P.S.W.G.P.T.D.P.R.R.R.S.R.N.L.[am]}$$$$V2.0; SMILES …)
T20 peptide: SGSGPSWGPTDPRRRSRNL

HCV core peptide 56 = HCV core peptide 56 (hepatitis C virus, N-terminal biotin; C-terminal amide)
HCV core peptide 58 = HCV core peptide 58 (hepatitis C virus, N-terminal biotin; C-terminal amide)
HCV core peptide 59 = HCV core peptide 59 (hepatitis C virus, N-terminal biotin; C-terminal amide)
HCV core peptide 61 = target: T21, HCV core peptide 61 (hepatitis C virus, N-terminal biotin; C-terminal amide)
T21 construct: range 121-135

HCV core peptide 67 = HCV core peptide 67 (hepatitis C virus, N-terminal biotin; C-terminal amide)
HCV core peptide 68 = target: T22, HCV core peptide 68 (hepatitis C virus, N-terminal biotin; C-terminal amide)
T22 construct: range 135-149

HCV core peptide 70 = HCV core peptide 70 (hepatitis C virus, N-terminal biotin; C-terminal amide)
HCV core peptide 78 = HCV core peptide 78 (hepatitis C virus, N-terminal biotin; C-terminal amide)
HCV core peptide 80 = HCV core peptide 80 (hepatitis C virus, N-terminal biotin; C-terminal amide)
HCV core peptide 81 = target: T23, HCV core peptide 81 (hepatitis C virus, N-terminal biotin; C-terminal amide)
T23 construct: range 161-175

HCV core peptide 83 = target: T24, HCV core peptide 83 (hepatitis C virus, N-terminal biotin; C-terminal amide)
T24 construct: range 165-179

B1: Neo4 mouse monoclonal antibody (antibody, V domains shown)
VH: QIQLKESGPAVIKPSQSLSLTCIVSGFSITSSVYCWQWIRQPPGKGLEWMGRICYDGSVDYSPSITSRGTISRDTSLNKVFFQLSSVTNEDTAMYYCSRENHIDYYDTTYPSFDVWGAGTTVTVSS
VL: DIVLTQSPASLIVSLGQRATISCRASKSVNEYGYTYMHWYQQKPGLPPKLLIYLASNLDSGVPARFSGSGSGTDFTLNIHPVEEEDAATYYCQHSRELPYTFGGGTKLEIKR
notes: Mouse hybridoma antibody, isotype IgG1, purified with Protein G; also called HCV Neo4
- OD (A492 nm) (HCV core peptide 2): 0.06 OD
- OD (A492 nm) (HCV core peptide 6): 0.06 OD
- OD (A492 nm) (HCV core peptide 7): 0.07 OD
- OD (A492 nm) (HCV core peptide 8): 0.06 OD
- OD (A492 nm) (HCV core peptide 11): 0.05 OD
- OD (A492 nm) (HCV core peptide 12): 0.07 OD
- OD (A492 nm) (HCV core peptide 15): 0.06 OD
- OD (A492 nm) (HCV core peptide 16): 0.06 OD
- OD (A492 nm) (HCV core peptide 19): 0.05 OD
- OD (A492 nm) (HCV core peptide 21): 0.05 OD
- OD (A492 nm) (HCV core peptide 22): 0.07 OD
- OD (A492 nm) (HCV core peptide 23): 0.05 OD
- OD (A492 nm) (HCV core peptide 32): 0.06 OD
- OD (A492 nm) (HCV core peptide 33): 0.05 OD
- OD (A492 nm) (HCV core peptide 34): 0.04 OD
- OD (A492 nm) (HCV core peptide 41): 0.04 OD
- OD (A492 nm) (HCV core peptide 42): 0.04 OD
- OD (A492 nm) (HCV core peptide 46): 0.06 OD
- OD (A492 nm) (HCV core peptide 51): 0.96 OD
- OD (A492 nm) (HCV core peptide 52): 0.93 OD
- OD (A492 nm) (HCV core peptide 53): 0.96 OD
- OD (A492 nm) (HCV core peptide 56): 0.04 OD
- OD (A492 nm) (HCV core peptide 58): 0.05 OD
- OD (A492 nm) (HCV core peptide 59): 0.05 OD
- OD (A492 nm) (HCV core peptide 61): 0.05 OD
- OD (A492 nm) (HCV core peptide 67): 0.05 OD
- OD (A492 nm) (HCV core peptide 68): 0.04 OD
- OD (A492 nm) (HCV core peptide 70): 0.04 OD
- OD (A492 nm) (HCV core peptide 78): 0.06 OD
- OD (A492 nm) (HCV core peptide 80): 0.05 OD
- OD (A492 nm) (HCV core peptide 81): 0.04 OD
- OD (A492 nm) (HCV core peptide 83): 0.05 OD
